Measurements taken from US20260028421A1 (JIANGSU HENGRUI PHARMACEUTICALS, published 2026).

Key:
hIL5 = hIL5 (human, UniProt P05113 20-134); test: ELISA
hTSLP = hTSLP (human, UniProt Q969D9 29-159); test: ELISA

| Binder | EC50 (hIL5) | EC50 (hTSLP) |
| --- | --- | --- |
| HJ-8 (bispecific antibody) chain 1: not shown chain 2: DIQMTQSPSSVSASVGDRVTITCRASQDIANYLSWYQQKPGKSPKLLIYGTSNLEVGVPSRFSGSRSGTDFTLTISSLQPEDFATYYCLQDKEFPRTFGGGTKVEIKRTVASSGAPRFLTRPKASVVSVGKDATLSSQIVGNPFPQVSWEKDKQPVTAGVRFRLAQDGDLYRLKILDLQLSDSGQYVSRARNAHGEAFACLGLQVDAEA chain 3: EVQLVQSGAEVKKPGSSVKVSCKASGYTFSNYLIEWVRQAPGQGLEWIGVIDPGVGDTNYNENFKGRATLTADKSTSTAYIELSSLRSEDTAVYYCAREDNTGTAFDYWGQGTTVTVSSASTKGPSVFPLAPSSKSTSGGTAALGCLVKDYFPEPVTVSWNSGALTSGVHTFPAVLQSSGLYSLSSVVTVPSSSLGTQTYICNVNHKPSNTKVDKKVEPKSCDKTHTCPPCPAPEAAGGPSVFLFPPKPKDTLMISRTPEVTCVVVDVSHEDPEVKFNWYVDGVEVHNAKTKPREEQYNSTYRVVSVLTVLHQDWLNGKEYKCKVSNKALPAPIEKTISKAKGQPREPQVCTLPPSREEMTKNQVSLSCAVKGFYPSDIAVEWESNGQPENNYKTTPPVLDSDGSFFLVSKLTVDKSRWQQGNVFSCSVMHEALHNHYTQKSLSLSPGK chain 4: SIVMTQTPLSLSVTPGQPASISCKASQSVSSDVTWYLQKPGQSPQLLIYYVSEHYTGVPDRFSGSGYGTDFTLKISRVEAEDVGVYYCQQHHRFPLTFGQGTKLEIKRTVAAPSVFIFPPSDEQLKSGTASVVCLLNNFYPREAKVQWKVDNALQSGNSQESVTEQDSKDSTYSLSSTLTLSKADYEKHKVYACEVTHQGLSSPVTKSFNRGEC | 18.7 nM | 3.33 nM |
| HJ-9 (bispecific antibody) chain 1: not shown chain 2: DIQMTQSPSSVSASVGDRVTITCRASQDIANYLSWYQQKPGKSPKLLIYGTSNLEVGVPSRFSGSRSGTDFTLTISSLQPEDFATYYCLQDKEFPRTFGGGTKVEIKRTVASSGAPRFLTCPKASVVSVGKDATLSSQIVGNPFPQVSWEKDKQPVTAGVRFRLAQDGDLYRLKILDLQLSDSGQYVSRARNAHGEAFACLGLQVDAEA chain 3: EVQLVQSGAEVKKPGSSVKVSCKASGYTFSNYLIEWVRQAPGQGLEWIGVIDPGVGDTNYNENFKGRATLTADKSTSTAYIELSSLRSEDTAVYYCAREDNTGTAFDYWGQGTTVTVSSASTKGPSVFPLAPSSKSTSGGTAALGCLVKDYFPEPVTVSWNSGALTSGVHTFPAVLQSSGLYSLSSVVTVPSSSLGTQTYICNVNHKPSNTKVDKKVEPKSCDKTHTCPPCPAPEAAGGPSVFLFPPKPKDTLMISRTPEVTCVVVDVSHEDPEVKFNWYVDGVEVHNAKTKPREEQYNSTYRVVSVLTVLHQDWLNGKEYKCKVSNKALPAPIEKTISKAKGQPREPQVCTLPPSREEMTKNQVSLSCAVKGFYPSDIAVEWESNGQPENNYKTTPPVLDSDGSFFLVSKLTVDKSRWQQGNVFSCSVMHEALHNHYTQKSLSLSPGK chain 4: SIVMTQTPLSLSVTPGQPASISCKASQSVSSDVTWYLQKPGQSPQLLIYYVSEHYTGVPDRFSGSGYGTDFTLKISRVEAEDVGVYYCQQHHRFPLTFGQGTKLEIKRTVAAPSVFIFPPSDEQLKSGTASVVCLLNNFYPREAKVQWKVDNALQSGNSQESVTEQDSKDSTYSLSSTLTLSKADYEKHKVYACEVTHQGLSSPVTKSFNRGEC | 10.9 nM | 3.18 nM |
